# Assay results from IntAct's records for PubMed 31515488.
# Columns and labels:
# pp16a_human PPP1R16A = pp16a_human PPP1R16A (UniProt Q96I34)
# echp_human EHHADH = echp_human EHHADH (UniProt Q08426)
# dpolb_human POLB = dpolb_human POLB (UniProt P06746)
# klhl2_human KLHL2 = klhl2_human KLHL2 (UniProt O95198)
# clip4_human CLIP4 = clip4_human CLIP4 (UniProt Q8N3C7)
# stk24_human STK24 = stk24_human STK24 (UniProt Q9Y6E0)
# rasf7_human RASSF7 = rasf7_human RASSF7 (UniProt Q02833)
# trip6_human TRIP6 = trip6_human TRIP6 (UniProt Q15654)
# pak1_human PAK1 = pak1_human PAK1 (UniProt Q13153)
# zksc4_human ZKSCAN4 = zksc4_human ZKSCAN4 (UniProt Q969J2)
# FAM90A1 = FAM90A1 (UniProt Q86YD7)
# sf3a3_human SF3A3 = sf3a3_human SF3A3 (UniProt Q12874)
# mdfi_human MDFI = mdfi_human MDFI (UniProt Q99750)
# kr107_human KRTAP10-7 = kr107_human KRTAP10-7 (UniProt P60409)
# zc4h2_human ZC4H2 = zc4h2_human ZC4H2 (UniProt Q9NQZ6)
# aen_human AEN = aen_human AEN (UniProt Q8WTP8)
# nkap1_human NKAPD1 = nkap1_human NKAPD1 (UniProt Q6ZUT1)
# rby1a_human RBMY1A1 = rby1a_human RBMY1A1 (UniProt P0DJD3)
# rnps1_human RNPS1 = molecular target: T1, rnps1_human RNPS1 (UniProt Q15287)
# T1 sequence: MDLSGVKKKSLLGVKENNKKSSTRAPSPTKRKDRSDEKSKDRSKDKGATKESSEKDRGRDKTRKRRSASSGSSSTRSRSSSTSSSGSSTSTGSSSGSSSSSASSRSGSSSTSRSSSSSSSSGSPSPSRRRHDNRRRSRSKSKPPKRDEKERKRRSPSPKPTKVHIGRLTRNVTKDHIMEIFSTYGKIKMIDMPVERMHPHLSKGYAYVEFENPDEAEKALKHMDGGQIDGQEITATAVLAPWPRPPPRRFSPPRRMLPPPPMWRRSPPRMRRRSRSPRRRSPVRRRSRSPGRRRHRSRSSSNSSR
# lc7l2_human LUC7L2 = molecular target: T2, lc7l2_human LUC7L2 (UniProt Q9Y383)
# T2 sequence: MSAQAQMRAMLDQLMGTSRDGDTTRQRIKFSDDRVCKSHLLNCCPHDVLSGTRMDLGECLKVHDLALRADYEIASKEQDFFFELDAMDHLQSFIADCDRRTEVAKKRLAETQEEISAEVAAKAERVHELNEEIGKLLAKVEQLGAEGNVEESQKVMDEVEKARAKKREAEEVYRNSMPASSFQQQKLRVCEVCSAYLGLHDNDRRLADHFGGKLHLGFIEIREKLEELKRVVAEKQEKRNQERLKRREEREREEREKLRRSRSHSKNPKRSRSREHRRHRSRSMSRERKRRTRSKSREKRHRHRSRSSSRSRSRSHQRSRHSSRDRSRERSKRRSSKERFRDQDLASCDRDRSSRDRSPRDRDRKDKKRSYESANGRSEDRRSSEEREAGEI
# tpp2_human TPP2 = tpp2_human TPP2 (UniProt P29144)
# adas_human AGPS = adas_human AGPS (UniProt O00116)
# frih_human FTH1 = frih_human FTH1 (UniProt P02794)
# scel_human SCEL = scel_human SCEL (UniProt O95171)
# sufu_human SUFU [1] = molecular target: sufu_human SUFU (UniProt Q9UMX1)
# phs_human PCBD1 = phs_human PCBD1 (UniProt P61457)
# cryaa_human CRYAA = cryaa_human CRYAA (UniProt P02489)
# ei2ba_human EIF2B1 = ei2ba_human EIF2B1 (UniProt Q14232)
# zmat1_human ZMAT1 = zmat1_human ZMAT1 (UniProt Q5H9K5)
# acy3_human ACY3 = molecular target: T3, acy3_human ACY3 (UniProt Q96HD9)
# T3 sequence: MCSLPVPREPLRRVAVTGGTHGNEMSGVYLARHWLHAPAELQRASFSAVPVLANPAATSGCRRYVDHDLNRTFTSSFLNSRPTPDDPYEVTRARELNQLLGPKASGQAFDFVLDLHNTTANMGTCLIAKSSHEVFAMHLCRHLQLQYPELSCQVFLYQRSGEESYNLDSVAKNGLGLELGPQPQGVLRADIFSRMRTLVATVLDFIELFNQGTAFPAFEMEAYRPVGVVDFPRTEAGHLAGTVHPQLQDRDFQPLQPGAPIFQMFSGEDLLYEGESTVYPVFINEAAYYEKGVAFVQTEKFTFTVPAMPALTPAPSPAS
# dpyl2_human DPYSL2 = dpyl2_human DPYSL2 (UniProt Q16555)
# dmc1_human DMC1 = molecular target: T4, dmc1_human DMC1 (UniProt Q14565)
# T4 sequence: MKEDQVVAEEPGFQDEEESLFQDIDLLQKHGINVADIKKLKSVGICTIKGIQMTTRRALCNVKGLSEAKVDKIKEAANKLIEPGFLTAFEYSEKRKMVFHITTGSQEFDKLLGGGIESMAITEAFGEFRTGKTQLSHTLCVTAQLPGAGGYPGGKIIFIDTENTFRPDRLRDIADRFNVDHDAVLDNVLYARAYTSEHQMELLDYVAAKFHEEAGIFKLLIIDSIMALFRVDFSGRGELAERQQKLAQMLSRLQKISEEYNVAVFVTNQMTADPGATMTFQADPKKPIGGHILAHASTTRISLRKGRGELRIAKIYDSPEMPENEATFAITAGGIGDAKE
# sufu_human SUFU [2] = molecular target: sufu_human SUFU (UniProt Q9UMX1); remark: listed apart in the source
# ntaq1_human NTAQ1 = ntaq1_human NTAQ1 (UniProt Q96HA8)
# lpxn_human LPXN = lpxn_human LPXN (UniProt O60711)
# cep63_human CEP63 = cep63_human CEP63 (UniProt Q96MT8)
# tri23_human TRIM23 = tri23_human TRIM23 (UniProt P36406)
# mfap1_human MFAP1 = mfap1_human MFAP1 (UniProt P55081)
# gpt2l_human GPATCH2L = gpt2l_human GPATCH2L (UniProt Q9NWQ4)
# stk25_human STK25 = stk25_human STK25 (UniProt O00506)
# cep55_human CEP55 = molecular target: T5, cep55_human CEP55 (UniProt Q53EZ4)
# T5 sequence: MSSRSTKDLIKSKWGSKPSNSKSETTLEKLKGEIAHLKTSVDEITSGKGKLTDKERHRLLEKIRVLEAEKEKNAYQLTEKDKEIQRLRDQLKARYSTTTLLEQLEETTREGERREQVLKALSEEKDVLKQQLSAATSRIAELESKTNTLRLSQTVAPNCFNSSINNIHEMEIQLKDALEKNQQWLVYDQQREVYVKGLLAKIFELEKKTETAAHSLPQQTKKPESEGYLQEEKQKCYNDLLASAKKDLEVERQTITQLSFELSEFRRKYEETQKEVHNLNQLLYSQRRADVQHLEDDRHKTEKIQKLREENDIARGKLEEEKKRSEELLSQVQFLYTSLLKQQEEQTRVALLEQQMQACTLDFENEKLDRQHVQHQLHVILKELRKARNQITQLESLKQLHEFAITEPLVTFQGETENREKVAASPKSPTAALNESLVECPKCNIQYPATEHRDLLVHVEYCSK
# ndor1_human NDOR1 = ndor1_human NDOR1 (UniProt Q9UHB4)
# glrx3_human GLRX3 = glrx3_human GLRX3 (UniProt O76003)
# Zinc finger protein 317 (Homo sapiens), Q96PQ6 Q19H, sequence (Q96PQ6 whole entry Q19H): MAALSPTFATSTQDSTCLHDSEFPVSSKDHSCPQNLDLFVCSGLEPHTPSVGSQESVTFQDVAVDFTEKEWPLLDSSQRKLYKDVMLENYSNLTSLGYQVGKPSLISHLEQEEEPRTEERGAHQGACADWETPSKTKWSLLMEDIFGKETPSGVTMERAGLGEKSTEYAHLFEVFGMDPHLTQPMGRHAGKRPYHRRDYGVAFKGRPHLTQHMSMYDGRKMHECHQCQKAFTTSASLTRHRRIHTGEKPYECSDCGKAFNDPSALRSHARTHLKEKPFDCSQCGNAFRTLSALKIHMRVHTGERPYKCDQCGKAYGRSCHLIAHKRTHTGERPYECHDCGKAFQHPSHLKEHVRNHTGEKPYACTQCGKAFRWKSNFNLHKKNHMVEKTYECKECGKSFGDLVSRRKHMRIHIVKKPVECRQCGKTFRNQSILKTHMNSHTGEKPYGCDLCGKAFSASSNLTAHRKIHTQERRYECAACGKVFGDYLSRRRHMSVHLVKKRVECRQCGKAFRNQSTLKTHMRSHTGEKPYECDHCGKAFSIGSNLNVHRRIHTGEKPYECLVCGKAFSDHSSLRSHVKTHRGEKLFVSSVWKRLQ
# Cytoplasmic protein NCK2 (Homo sapiens), O43639 E125K, sequence (O43639 whole entry E125K): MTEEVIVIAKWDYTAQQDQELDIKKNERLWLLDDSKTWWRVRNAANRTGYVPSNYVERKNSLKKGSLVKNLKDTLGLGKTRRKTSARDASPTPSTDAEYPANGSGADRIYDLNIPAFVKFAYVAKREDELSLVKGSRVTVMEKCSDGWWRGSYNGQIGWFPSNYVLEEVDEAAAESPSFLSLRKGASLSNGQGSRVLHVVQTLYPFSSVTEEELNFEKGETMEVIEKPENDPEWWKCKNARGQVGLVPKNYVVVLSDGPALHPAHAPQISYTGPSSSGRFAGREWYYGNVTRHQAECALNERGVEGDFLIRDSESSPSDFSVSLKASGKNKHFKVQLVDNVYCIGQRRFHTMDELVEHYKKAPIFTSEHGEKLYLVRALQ
# Zinc finger protein 223 (Homo sapiens), Q9UK11 S357A, sequence (Q9UK11 whole entry S357A): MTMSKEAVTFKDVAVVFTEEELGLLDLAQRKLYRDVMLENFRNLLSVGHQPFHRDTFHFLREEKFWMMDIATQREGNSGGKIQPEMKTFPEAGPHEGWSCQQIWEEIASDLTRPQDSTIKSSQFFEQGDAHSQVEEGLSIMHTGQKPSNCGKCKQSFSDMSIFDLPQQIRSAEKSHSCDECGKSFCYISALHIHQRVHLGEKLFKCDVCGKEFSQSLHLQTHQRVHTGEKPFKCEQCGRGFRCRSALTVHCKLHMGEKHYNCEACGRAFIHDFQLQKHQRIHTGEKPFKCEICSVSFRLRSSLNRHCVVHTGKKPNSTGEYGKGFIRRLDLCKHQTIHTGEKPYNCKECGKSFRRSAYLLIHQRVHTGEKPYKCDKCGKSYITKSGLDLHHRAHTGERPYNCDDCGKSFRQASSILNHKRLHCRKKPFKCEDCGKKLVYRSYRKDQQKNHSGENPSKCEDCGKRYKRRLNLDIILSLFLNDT
# Anamorsin (Homo sapiens), Q6FI81 A34E, sequence (Q6FI81 whole entry A34E): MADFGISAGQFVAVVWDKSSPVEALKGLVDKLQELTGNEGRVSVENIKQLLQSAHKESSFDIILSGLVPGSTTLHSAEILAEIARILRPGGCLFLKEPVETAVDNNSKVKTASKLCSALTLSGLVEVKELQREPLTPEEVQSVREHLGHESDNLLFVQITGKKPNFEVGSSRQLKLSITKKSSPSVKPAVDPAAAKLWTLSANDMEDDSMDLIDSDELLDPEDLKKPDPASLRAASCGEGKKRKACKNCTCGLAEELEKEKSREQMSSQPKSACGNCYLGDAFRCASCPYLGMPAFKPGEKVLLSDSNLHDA
# sufu_human SUFU, sequence (Q9UMX1 whole entry): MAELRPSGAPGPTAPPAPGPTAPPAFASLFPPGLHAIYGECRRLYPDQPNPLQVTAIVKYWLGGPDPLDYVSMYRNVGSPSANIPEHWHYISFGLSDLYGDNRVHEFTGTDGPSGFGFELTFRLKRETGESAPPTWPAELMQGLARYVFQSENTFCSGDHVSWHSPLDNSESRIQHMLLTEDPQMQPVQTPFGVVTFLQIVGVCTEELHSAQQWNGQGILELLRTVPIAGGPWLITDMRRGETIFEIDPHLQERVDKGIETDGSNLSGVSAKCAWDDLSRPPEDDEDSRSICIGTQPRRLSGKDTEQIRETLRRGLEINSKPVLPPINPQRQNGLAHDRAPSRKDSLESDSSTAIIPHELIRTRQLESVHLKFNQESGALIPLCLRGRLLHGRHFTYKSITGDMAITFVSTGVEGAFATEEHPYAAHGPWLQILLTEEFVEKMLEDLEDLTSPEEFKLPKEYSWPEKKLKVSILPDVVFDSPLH
# echp_human EHHADH, sequence (Q08426 whole entry): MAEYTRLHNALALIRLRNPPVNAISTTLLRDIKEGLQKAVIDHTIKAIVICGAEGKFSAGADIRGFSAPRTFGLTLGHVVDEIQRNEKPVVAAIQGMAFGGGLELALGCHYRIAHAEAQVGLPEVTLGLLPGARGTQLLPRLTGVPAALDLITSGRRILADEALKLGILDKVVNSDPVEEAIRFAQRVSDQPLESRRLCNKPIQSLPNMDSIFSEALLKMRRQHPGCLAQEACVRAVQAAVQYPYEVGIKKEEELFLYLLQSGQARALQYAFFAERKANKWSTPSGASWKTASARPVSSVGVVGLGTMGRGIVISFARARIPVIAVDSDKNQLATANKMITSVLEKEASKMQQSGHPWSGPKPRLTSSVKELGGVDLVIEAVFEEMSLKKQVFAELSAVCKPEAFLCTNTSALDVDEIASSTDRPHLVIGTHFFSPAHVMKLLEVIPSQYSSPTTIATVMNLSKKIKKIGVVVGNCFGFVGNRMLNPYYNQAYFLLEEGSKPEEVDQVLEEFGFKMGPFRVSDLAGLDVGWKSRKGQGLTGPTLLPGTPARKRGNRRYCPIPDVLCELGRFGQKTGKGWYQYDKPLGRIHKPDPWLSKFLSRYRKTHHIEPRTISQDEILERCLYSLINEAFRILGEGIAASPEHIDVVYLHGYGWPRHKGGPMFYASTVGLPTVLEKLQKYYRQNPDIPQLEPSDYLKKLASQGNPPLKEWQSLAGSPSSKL
# Zinc finger protein 212 (Homo sapiens), Q9UDV6 E225K, sequence (Q9UDV6 whole entry E225K): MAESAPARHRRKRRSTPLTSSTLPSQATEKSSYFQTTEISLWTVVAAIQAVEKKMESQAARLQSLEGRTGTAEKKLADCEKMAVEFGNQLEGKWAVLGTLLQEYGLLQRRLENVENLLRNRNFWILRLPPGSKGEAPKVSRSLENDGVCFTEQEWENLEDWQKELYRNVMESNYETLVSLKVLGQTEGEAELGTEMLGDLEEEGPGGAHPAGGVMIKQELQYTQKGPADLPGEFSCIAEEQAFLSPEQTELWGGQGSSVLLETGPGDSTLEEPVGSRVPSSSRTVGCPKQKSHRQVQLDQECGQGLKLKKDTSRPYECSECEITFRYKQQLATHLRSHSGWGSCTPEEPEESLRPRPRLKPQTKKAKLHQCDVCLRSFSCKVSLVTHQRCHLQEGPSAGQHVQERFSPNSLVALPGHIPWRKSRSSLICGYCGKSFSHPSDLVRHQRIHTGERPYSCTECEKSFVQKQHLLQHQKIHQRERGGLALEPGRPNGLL
# Zinc finger protein 114 (Homo sapiens), Q8NC26 V207A, sequence (Q8NC26 whole entry V207A): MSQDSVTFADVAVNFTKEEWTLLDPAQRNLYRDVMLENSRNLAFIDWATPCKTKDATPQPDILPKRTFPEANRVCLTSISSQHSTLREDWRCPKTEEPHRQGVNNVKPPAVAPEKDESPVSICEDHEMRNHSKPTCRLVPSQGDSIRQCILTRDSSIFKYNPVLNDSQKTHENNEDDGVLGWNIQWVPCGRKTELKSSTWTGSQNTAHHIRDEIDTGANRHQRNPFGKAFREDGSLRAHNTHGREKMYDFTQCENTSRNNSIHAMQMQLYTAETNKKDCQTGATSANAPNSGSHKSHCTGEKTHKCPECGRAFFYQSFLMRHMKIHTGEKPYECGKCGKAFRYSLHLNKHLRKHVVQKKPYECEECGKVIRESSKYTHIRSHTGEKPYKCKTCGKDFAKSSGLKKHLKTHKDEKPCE
# pp16a_human PPP1R16A, sequence (Q96I34 whole entry): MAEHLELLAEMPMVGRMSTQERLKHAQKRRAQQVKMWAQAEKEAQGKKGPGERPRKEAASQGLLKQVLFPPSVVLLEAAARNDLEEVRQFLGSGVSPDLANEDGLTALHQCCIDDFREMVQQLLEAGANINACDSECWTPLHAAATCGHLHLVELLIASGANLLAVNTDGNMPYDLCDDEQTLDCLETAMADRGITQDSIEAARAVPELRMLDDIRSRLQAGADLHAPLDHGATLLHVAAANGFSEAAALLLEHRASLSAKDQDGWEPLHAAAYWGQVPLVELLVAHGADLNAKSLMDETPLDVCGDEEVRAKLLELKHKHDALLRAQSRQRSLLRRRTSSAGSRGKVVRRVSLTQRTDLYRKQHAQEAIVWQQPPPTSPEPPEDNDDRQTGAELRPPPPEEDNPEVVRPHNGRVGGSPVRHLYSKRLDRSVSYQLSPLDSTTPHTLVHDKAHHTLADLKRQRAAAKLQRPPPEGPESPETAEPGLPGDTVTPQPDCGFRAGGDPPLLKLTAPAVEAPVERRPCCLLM
# Zinc finger protein 212 (Homo sapiens), Q9UDV6 H293Y, sequence (Q9UDV6 whole entry H293Y): as the sequence (Q9UDV6 whole entry E225K) above, with K225E, H293Y counted along it
# sf3a3_human SF3A3, sequence (Q12874 whole entry): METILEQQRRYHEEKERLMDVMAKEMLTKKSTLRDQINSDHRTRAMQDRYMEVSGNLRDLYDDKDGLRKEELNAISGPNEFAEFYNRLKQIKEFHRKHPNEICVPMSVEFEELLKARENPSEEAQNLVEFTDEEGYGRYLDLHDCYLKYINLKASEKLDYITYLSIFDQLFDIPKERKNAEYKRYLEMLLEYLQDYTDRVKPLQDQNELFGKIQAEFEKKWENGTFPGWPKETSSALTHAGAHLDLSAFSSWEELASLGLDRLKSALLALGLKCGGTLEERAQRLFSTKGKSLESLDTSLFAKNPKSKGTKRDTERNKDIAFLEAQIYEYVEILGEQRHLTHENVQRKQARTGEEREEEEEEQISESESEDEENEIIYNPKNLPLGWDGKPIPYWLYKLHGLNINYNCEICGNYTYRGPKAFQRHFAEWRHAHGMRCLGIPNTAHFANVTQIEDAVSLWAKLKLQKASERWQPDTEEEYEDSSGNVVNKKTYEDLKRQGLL
substance,measurement,setting,value
"Tripeptidyl-peptidase 2 (Homo sapiens), P29144 V1121I",effect of a mutation on the interaction,pp16a_human PPP1R16A,with no effect
same,effect of a mutation on the interaction,echp_human EHHADH,with no effect
same,effect of a mutation on the interaction,dpolb_human POLB,with no effect
"Zinc finger protein 114 (Homo sapiens), Q8NC26 V207A",effect of a mutation on the interaction,klhl2_human KLHL2,with no effect
same,effect of a mutation on the interaction,clip4_human CLIP4,with no effect
"Programmed cell death protein 10 (Homo sapiens), Q9BUL8 M20V",effect of a mutation on the interaction,stk24_human STK24,with no effect
"Cytoplasmic protein NCK2 (Homo sapiens), O43639 E125K",effect of a mutation on the interaction,rasf7_human RASSF7,with no effect
same,effect of a mutation on the interaction,trip6_human TRIP6,with no effect
same,effect of a mutation on the interaction,pak1_human PAK1,with no effect
"Calcium-binding protein 5 (Homo sapiens), Q9NP86 E140K",effect of a mutation on the interaction,zksc4_human ZKSCAN4,with no effect
"Zinc finger protein 212 (Homo sapiens), Q9UDV6 E225K",effect of a mutation on the interaction,FAM90A1,with no effect
same,effect of a mutation on the interaction,sf3a3_human SF3A3,with no effect
"Zinc finger protein 223 (Homo sapiens), Q9UK11 S357A",effect of a mutation on the interaction,mdfi_human MDFI,with no effect
same,effect of a mutation on the interaction,kr107_human KRTAP10-7,with no effect
same,effect of a mutation on the interaction,zc4h2_human ZC4H2,with no effect
"Zinc finger protein 317 (Homo sapiens), Q96PQ6 Q19H",effect of a mutation on the interaction,aen_human AEN,with no effect
same,effect of a mutation on the interaction,nkap1_human NKAPD1,with no effect
same,effect of a mutation on the interaction,rby1a_human RBMY1A1,with no effect
Serine/arginine-rich splicing factor 6 (Homo sapiens) (from UniProt Q13247-1) R145Q,effect of a mutation on the interaction,rnps1_human RNPS1,with no effect
same,effect of a mutation on the interaction,lc7l2_human LUC7L2,with no effect
DNA polymerase beta (Homo sapiens) (from UniProt P06746) P242R,effect of a mutation on the interaction,tpp2_human TPP2,with no effect
"Golgi reassembly-stacking protein 1 (Homo sapiens), Q9BQQ3 T425M",effect of a mutation on the interaction,adas_human AGPS,with no effect
"RNA-binding protein FXR2 (Homo sapiens), P51116 R483Q",effect of a mutation on the interaction,frih_human FTH1,with no effect
same,effect of a mutation on the interaction,scel_human SCEL,with no effect
"Zinc finger protein 263 (Homo sapiens), O14978 C310S",effect of a mutation on the interaction,sufu_human SUFU [1],with no effect
Golgi reassembly-stacking protein 2 (Homo sapiens) (from UniProt Q9H8Y8) T415M,effect of a mutation on the interaction,phs_human PCBD1,with no effect
same,effect of a mutation on the interaction,cryaa_human CRYAA,with no effect
same,effect of a mutation on the interaction,ei2ba_human EIF2B1,with no effect
same,effect of a mutation on the interaction,zmat1_human ZMAT1,with no effect
same,effect of a mutation on the interaction,acy3_human ACY3,with no effect
same,effect of a mutation on the interaction,dpyl2_human DPYSL2,with no effect
same,effect of a mutation on the interaction,dmc1_human DMC1,with no effect
"Zinc finger protein 747 (Homo sapiens), Q9BV97 G28R",effect of a mutation on the interaction,sufu_human SUFU [2],with no effect
"Argininosuccinate lyase (Homo sapiens), P04424 R12Q",effect of a mutation on the interaction,ntaq1_human NTAQ1,with no effect
"Homeobox protein Hox-C9 (Homo sapiens), P31274 A122V",effect of a mutation on the interaction,lpxn_human LPXN,with no effect
"Histone-lysine N-methyltransferase EZH2 (Homo sapiens), Q15910 M439T",effect of a mutation on the interaction,cep63_human CEP63,disrupting interaction strength
"Tripeptidyl-peptidase 2 (Homo sapiens), P29144 T998R",effect of a mutation on the interaction,pp16a_human PPP1R16A,with no effect
same,effect of a mutation on the interaction,echp_human EHHADH,with no effect
same,effect of a mutation on the interaction,dpolb_human POLB,with no effect
"FAD synthase (Homo sapiens), Q8NFF5 R437H",effect of a mutation on the interaction,tri23_human TRIM23,with no effect
"Zinc finger protein 398 (Homo sapiens), Q8TD17 V252M",effect of a mutation on the interaction,mfap1_human MFAP1,with no effect
same,effect of a mutation on the interaction,gpt2l_human GPATCH2L,with no effect
"Zinc finger protein 212 (Homo sapiens), Q9UDV6 H293Y",effect of a mutation on the interaction,FAM90A1,with no effect
same,effect of a mutation on the interaction,sf3a3_human SF3A3,with no effect
"Programmed cell death protein 10 (Homo sapiens), Q9BUL8 M92V",effect of a mutation on the interaction,stk25_human STK25,with no effect
Ribosomal RNA small subunit methyltransferase NEP1 (Homo sapiens) (from UniProt Q92979) A34G,effect of a mutation on the interaction,cep55_human CEP55,with no effect
"Anamorsin (Homo sapiens), Q6FI81 A34E",effect of a mutation on the interaction,ndor1_human NDOR1,disrupting interaction strength
same,effect of a mutation on the interaction,glrx3_human GLRX3,with no effect
